B1: GST-LckBP1-#5 (other)
chain: MEAPTTAYKKTTPIEAASSGARGLKAKFESLAEEKRKREEEEKAQQMARQQQERKAVVKMSREVQQ
B2: GST-LckBP1-#8 (other)
chain: AIALYDYQGEGSDELSFDPDDIITDIEMVDEGWWRGQCRGHFGLFPANYVKLL
B3: GST-LckBP1-#4 (other)
chain: MEAPTTAYKKTTPIEAASSGARGLKAKFESLAEEKRKREEEEKAQQMARQQQERKAVVKMSREVQQPSMPVEEPAAPAQLPKKISSEVWPPAESHLPPESQPVRSRREYPVPSLPTRQSPL

These binders were tested against biotinylated GST (Schistosoma japonicum (Blood fluke), UniProt P08515 = GST, biotinylated (sites not given)) (assay: blot of GST-LckBP1 deletion mutants probed with biotinylated GST).
Source text: DNA deletion fragments were obtained by PCR, and subcloned into the pGEX-2T vector (FIG. 7). The fusion proteins produced in *E. coli* were subjected to SDS-PAGE, transferred to a nitrocellulose filter, and probed with biotinylated GST or GST-Lck SH3 protein.

Does B1 bind?
Result: no binding

Does B2 bind?
Result: no binding

Does B3 bind?
Result: no binding

From US5891673, “Lck binding protein” (Syntex (U.S.A.) Inc., dated 1999)
